Details in all cases: protein: recombinant; label: 13-nm gold nanosphere via DNA1 3' thiol; partial duplex: aptamer 5' part pairs with DNA1; aptamer 3' overhang; DNA1 3' AAA tail
One series has as its target T1, MMP-7 (human, UniProt P09237 95-267).
T1 sequence: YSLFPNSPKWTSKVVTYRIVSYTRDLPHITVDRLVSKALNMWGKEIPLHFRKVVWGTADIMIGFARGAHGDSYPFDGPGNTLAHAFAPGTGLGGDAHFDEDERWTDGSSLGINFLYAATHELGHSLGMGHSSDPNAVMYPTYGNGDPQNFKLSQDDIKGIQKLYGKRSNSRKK
Kind of series: SERS nanosensor (aptamer strand displacement); 100 ng/mL; AuNS-2 with DNA2/DTNB present; Assay buffer for MMP-9 in solution not in the material; duplex annealed in 8 mM phosphate, 0.8 mM MgCl2, 20 mM NaCl; cell supernatant assay at 37 C for 2 h.

The next series concerns the target MMP-2 (human, UniProt P08253 110-660). The description is as above.
For a further series, the target named is MMP-3 (human, UniProt P08254 100-477). The description is as above.
Chain of MMP-3 (P08254 100-477): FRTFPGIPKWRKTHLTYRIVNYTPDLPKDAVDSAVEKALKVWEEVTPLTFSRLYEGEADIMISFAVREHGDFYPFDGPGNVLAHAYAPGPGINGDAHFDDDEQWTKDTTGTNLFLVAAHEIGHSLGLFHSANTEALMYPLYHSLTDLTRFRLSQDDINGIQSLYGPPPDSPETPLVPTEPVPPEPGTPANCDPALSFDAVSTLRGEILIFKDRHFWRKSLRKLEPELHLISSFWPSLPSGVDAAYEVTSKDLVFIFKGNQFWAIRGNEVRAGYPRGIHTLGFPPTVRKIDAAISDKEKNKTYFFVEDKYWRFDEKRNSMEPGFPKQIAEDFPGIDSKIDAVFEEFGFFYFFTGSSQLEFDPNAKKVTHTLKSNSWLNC
A further series concerns the target MMP-9 (human, UniProt P14780 107-707). Description: SERS nanosensor (aptamer strand displacement, AuNS aggregation; UV-vis, DLS, TEM); MMP-9 10 ng/mL (selectivity), 350 ng/mL (UV-vis, DLS, TEM); AuNS-2 with DNA2/DTNB present; Assay buffer for MMP-9 in solution not in the material; duplex annealed in 8 mM phosphate, 0.8 mM MgCl2, 20 mM NaCl; cell supernatant assay at 37 C for 2 h.

Chain of MMP-2 (P08253 110-660): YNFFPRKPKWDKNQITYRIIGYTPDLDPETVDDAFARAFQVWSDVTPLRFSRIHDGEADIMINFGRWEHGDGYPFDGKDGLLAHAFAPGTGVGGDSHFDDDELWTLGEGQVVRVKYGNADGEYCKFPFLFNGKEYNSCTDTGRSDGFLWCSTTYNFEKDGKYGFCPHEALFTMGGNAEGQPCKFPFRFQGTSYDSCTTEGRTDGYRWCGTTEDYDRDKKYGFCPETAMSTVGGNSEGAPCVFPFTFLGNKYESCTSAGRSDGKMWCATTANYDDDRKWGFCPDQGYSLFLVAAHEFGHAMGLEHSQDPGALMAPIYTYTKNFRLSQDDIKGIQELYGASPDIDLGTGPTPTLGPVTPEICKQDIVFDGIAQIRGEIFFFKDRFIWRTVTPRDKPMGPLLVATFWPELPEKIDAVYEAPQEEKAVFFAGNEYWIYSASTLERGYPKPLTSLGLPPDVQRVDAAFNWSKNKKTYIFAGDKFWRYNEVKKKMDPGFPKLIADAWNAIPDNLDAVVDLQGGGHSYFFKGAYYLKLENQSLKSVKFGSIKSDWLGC
Chain of MMP-9 (P14780 107-707): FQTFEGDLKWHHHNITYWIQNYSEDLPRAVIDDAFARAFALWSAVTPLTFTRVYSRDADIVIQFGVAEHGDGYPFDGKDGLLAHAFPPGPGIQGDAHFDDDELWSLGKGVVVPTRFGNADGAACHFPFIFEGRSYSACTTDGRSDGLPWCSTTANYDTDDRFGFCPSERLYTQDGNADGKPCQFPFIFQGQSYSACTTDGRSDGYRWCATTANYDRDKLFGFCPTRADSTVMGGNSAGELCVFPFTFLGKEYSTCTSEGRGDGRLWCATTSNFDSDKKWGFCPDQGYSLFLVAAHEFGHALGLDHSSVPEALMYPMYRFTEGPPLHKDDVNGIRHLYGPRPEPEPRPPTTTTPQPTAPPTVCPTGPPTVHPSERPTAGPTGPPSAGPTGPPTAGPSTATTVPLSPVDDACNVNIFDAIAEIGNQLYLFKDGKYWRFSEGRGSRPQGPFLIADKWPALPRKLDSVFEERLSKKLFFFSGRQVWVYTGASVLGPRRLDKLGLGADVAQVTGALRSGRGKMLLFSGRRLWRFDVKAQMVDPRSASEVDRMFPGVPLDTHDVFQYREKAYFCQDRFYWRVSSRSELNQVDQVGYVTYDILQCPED

B1: MMP-9 aptamer (annealed to DNA1 on AuNS-1) (mixed)
DNA 1: TCGTATGGCACGGGGTTGGTGTTGGGTTGG
DNA 2: GGTGTGCCATACGAAA
modifications: DNA1 3' ThioMC3-D
As for B1, the binding result is reported as “no binding” with MMP-7, “no binding” in the series with MMP-2, “no binding” with MMP-3 and “binds” with MMP-9.

Values taken from PMC10798921, “Target-induced hot spot construction for sensitive and selective surface-enhanced Raman scattering detection of matrix metalloproteinase MMP-9”.
